Experimental data reported in patent US20150166987, “PROGRAMMABLE AND RECONFIGURABLE MICROCOLUMN AFFINITY CHROMATOGRAPY DEVICE, SYSTEM, AND METHODS OF USE THEREOF” (CORNELL UNIVERSITY, published 2015).

Columns and labels:
[1] = target: GFP (UniProt P42212 P42212:1-238); assay: pulldown; serial microcolumns, qPCR; 10 mM HEPES-KOH pH 7.6, 125 mM NaCl, 25 mM KCl, 5 mM MgCl2, 0.02% Tween-20; GFP 0.6 ug/uL resin; conditions: tags: N-terminal hexahistidine; immobilised on Ni-NTA Superflow resin
Method: (§1) The order of targets was as follows: Empty, GSH, Ni-NTA, Amylose, His-GFP, GST-hHSF1, His-NELF-E, His-UBLCP1, and is illustrated in FIG. 41 in section I.
(§2) The RNA pools were injected at a rate of 33 μL/min for 30 min with a 10 μL aliquot of each pool set aside and used as a standard for quantitative polymerase chain reaction (qPCR) analysis. All buffers and solutions were degassed prior to use and introduced into the microcolumns via programmable multichannel syringe pumps (Harvard Apparatus) with MEDUSA placed onto a 96-well format liquid waste reservoir. The microcolumns were reconfigured to run in parallel by removing the caps and silicone layers permitting the connectivity of microcolumns, and reassembling the device with the appropriate caps for a parallel configuration, and washed with 3 mL of binding buffer at a rate of 300 μL/min. The RNA/RNA-protein complexes were eluted directly into a 96-well microplate from the individual microcolumns by flowing elution buffer [binding buffer+50 mM ethylenediaminetetraacetic acid (EDTA pH 8.0) for selections with Ni-NTA resin; binding buffer+10 mM glutathione for selections with GSH resin; binding buffer+10 mM maltose for selections with amylose-resin] at a rate of 50 μL/min for 12 min. […]

[2] = target: hHSF1 (heat shock factor 1) (UniProt Q00613 Q00613:1-529); assay: pulldown; serial microcolumns, qPCR; same buffer, 5 mM MgCl2; conditions: tags: N-terminal GST; immobilised on glutathione-agarose
Method: as §1, §2

[3] = target: T1, NELF-E (Drosophila, UniProt P92204 P92204:1-280); assay: pulldown; serial microcolumns, qPCR; enrichment falls above 0.6 ug/uL NELF-E, de-enriched at 10 ug/uL; conditions: tags: N-terminal hexahistidine; immobilised on Ni-NTA Superflow resin
T1 sequence: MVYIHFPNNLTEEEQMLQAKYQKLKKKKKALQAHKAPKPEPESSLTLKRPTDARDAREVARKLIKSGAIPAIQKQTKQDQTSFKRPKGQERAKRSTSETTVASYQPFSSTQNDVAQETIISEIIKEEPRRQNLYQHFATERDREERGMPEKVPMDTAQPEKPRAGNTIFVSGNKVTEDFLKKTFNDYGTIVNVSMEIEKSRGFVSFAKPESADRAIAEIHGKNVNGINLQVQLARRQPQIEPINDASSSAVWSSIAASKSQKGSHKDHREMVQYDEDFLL

hHSF1 (heat shock factor 1), sequence (Q00613 whole entry, one chain of several): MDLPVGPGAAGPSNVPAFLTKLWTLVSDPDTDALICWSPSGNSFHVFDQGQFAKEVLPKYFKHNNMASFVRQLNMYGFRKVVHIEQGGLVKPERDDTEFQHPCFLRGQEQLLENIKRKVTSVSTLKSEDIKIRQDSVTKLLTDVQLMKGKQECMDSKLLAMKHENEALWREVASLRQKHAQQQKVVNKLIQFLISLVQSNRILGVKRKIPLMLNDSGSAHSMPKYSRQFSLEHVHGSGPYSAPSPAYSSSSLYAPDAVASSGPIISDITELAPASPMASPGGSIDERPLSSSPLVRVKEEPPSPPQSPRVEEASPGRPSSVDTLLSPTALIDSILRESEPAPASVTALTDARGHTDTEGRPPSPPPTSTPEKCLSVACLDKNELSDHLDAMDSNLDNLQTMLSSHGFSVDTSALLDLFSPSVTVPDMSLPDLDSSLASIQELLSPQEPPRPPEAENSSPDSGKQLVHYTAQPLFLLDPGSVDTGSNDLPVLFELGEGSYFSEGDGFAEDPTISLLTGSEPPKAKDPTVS

B1: GFPapt (AP3-1) (ssRNA)
RNA: AGCUUCUGGACUGCGAUGGGAGCACGAAACGUCGUGGCGCAAUUGGGUGGGGAAAGUCCUUAAAAGAGGGCCACCACAGAAGCU
B1 was tested, and the binding signal [1] was 750 fold enrichment over N70 library.

B2: HSFapt (hHSF2-R5-2) (ssRNA)
RNA: GGGAAUGGAUCCACAUCUACGAAUUCAAUCAAGUCCCCAGACUCAGCAACACUGGACAGCGAUAUGCAGAUAACCAAGACCAAUUCACUCCAGUUCACUGCAGACUUGACGAAGCUU
In the case of B2, the binding signal [2] is reported as 232 fold enrichment over N70 library.

B3: NELFapt (Napt1) (ssRNA)
RNA: GGGAAUGGAUCCACAUCUACGAAUUCCCAACGACUGCCGAGCGAGAUUACGCUUGAGCGCCCCACUGAGGAUGCCCACGGGCGAUUGGGGCACGGCUUCACUGCAGACUUGACGAAGCUU
With B3 the binding signal [3] was 262 fold enrichment over N70 library.
